Results: patent US20240124607A1 (Merck Sharp & Dohme, published 2024)

Columns and labels:
[1] = target: T1, Human CEACAM5 I80V V83A I112V I113T (human, UniProt P06731 35-685, limits assumed); test: SPR, 37C, pH 7.4
T1 chain: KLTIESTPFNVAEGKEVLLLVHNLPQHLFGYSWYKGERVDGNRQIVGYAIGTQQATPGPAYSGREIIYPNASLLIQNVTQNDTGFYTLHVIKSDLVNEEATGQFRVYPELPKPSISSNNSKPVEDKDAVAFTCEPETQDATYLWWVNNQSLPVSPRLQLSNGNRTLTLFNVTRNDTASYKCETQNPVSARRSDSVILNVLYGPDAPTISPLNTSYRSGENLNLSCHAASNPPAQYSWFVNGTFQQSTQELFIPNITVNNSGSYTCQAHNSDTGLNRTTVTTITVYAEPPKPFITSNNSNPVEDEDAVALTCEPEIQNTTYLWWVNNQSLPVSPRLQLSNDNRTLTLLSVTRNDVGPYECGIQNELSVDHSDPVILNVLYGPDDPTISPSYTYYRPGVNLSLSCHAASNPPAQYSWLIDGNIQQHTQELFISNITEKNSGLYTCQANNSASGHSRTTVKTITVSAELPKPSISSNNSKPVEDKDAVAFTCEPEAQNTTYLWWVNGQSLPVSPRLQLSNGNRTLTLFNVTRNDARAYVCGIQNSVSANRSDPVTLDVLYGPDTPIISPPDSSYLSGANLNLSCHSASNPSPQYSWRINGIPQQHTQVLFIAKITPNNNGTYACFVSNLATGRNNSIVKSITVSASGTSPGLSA

[2] = target: T2, Human CEACAM5 I112V (human, UniProt P06731 35-685, limits assumed); test: SPR, 37C, pH 7.4
T2 sequence: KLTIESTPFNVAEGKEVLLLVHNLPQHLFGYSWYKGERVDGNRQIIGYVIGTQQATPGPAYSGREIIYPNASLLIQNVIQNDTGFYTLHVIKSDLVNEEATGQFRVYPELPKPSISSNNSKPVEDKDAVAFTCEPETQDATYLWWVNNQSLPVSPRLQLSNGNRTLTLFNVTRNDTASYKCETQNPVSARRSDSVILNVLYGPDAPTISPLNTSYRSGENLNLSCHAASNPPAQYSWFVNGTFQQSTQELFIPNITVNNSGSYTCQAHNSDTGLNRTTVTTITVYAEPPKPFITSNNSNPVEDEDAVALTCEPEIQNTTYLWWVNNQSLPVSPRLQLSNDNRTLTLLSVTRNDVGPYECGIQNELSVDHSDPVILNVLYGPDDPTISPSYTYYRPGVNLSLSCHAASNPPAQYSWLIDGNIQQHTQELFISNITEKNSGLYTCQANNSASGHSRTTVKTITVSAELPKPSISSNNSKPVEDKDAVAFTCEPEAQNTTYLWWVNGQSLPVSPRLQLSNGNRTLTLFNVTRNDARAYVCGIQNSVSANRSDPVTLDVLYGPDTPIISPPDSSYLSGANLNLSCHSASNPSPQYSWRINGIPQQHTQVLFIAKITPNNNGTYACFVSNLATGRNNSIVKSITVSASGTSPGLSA

[3] = target: T3, hCEACAM5 A2-B2 domain (human, UniProt P06731 323-500, limits assumed); test: SPR with hCEACAM5 domains
T3 sequence: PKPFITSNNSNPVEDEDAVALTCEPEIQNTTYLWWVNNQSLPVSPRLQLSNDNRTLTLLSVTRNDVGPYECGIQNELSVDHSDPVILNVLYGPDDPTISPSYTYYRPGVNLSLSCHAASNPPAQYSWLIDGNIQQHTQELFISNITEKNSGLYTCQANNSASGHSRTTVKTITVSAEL
Description: (§1) If the protein domain was an Fc fusion, AB0411, AB0466, AB0264, or AB0621 were captured using an anti-human Fab antibody (Cytiva, #28958325) immobilized onto a CM5 chip. The various hCEACAM5 protein domains (N-term, A1-B1, A2, B2, A3, or B3) were titrated over the captured TriNKETs at 50 μL/min for 180 sec of association and 300 sec of dissociation. The assay was run at 25° C. in HBS-EP+ running buffer, pH 7.4. The surface of the CM5 chip was regenerated using […] glycine pH 2.1.
(§2) The various hCEACAM5 protein domains were titrated over the captured antibody at 50 μL/min for 180 sec of association and 300 sec of dissociation. The assay was run at 37° C. in HBS-EP+ running buffer, pH 7.4. The surface of the CM5 chip was regenerated using 3M MgCl₂.

[4] = target: T4, hCEACAM5 A3-B3 domain (human, UniProt P06731 501-685, limits assumed); test: SPR with hCEACAM5 domains
T4 sequence: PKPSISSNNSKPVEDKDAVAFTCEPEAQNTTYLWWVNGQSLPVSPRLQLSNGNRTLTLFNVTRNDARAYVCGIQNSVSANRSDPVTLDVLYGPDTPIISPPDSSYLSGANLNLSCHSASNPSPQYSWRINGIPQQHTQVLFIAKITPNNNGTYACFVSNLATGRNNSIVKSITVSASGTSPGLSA
Description: as §1, §2

[5] = target: T5, soluble mouse Fc-human NKG2D dimer (human, UniProt P26718 78-216, limits assumed); test: SPR, NKG2D-mFc captured, 37C, pH 6.0
T5 construct: also called NKG2D-mFc; human NKG2D fused to a mouse Fc
T5 sequence (looked up): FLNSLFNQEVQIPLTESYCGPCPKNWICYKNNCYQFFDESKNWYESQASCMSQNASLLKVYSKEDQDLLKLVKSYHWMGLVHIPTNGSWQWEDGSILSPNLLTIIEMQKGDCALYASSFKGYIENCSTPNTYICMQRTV
Description: (§3) Binding to NKG2D was assessed by SPR using a mouse Fc capture kit (Cytiva, #BR100838) immobilized onto a CM5 chip. Human and cynomolgus NKG2D fused to a mouse Fc were captured and AB0411, AB0466, or AB0621 was titrated from 600 nM.

[6] = target: T6, Cyno NKG2D-mFc (cynomolgus monkey, UniProt P61252 78-216, limits assumed); test: SPR, NKG2D-mFc captured, 37C, pH 6.0
T6 construct: also called cynomolgus NKG2D fused to a mouse Fc
T6 sequence (looked up): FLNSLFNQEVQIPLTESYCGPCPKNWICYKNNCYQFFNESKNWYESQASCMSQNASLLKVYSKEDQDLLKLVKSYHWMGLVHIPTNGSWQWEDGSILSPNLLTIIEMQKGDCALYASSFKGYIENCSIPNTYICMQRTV
Description: as §3

B1: AB0411 F3' CEACAM5 TriNKET (bispecific antibody, human IgG1, kappa)
chain: DIQLTQSPATLSVSPGERATLSCRASQSVSSSYLAWYQQKPGQAPRLLIYGASSRATGIPDRFSGSGSGTDFTLTISRLEPEDFAVYYCQQYNNWPLTFGCGTKVEIKGGGGSGGGGSGGGGSGGGGSQVQLVQSGGGLVQPGGSLRLSCAASGFTFTSYAMSWVRQAPGKCLEWVSAISGTGDSTFYADSVKGRFTFSRDNSKNTLYLQMNSLRAEDTAVYYCAKDLGWLQYGLFDYWGQGTLVTVSSGSDKTHTCPPCPAPELLGGPSVFLFPPKPKDTLMISRTPEVTCVVVDVSHEDPEVKFNWYVDGVEVHNAKTKPREEQYNSTYRVVSVLTVLHQDWLNGKEYKCKVSNKALPAPIEKTISKAKGQPREPRVYTLPPCRDELTKNQVSLTCLVKGFYPSDIAVEWESNGQPENNYKTTPPVLVSDGSFTLYSKLTVDKSRWQQGNVFSCSVMHEALHNHYTQKSLSLSPG
heavy: EVQLVESGGGLVKPGGSLRLSCAASGFTFSSYSMNWVRQAPGKGLEWVSSISSSSSYIYYADSVKGRFTISRDNAKNSLYLQMNSLRAEDTAVYYCARGAPIGAAAGWFDPWGQGTLVTVSSASTKGPSVFPLAPSSKSTSGGTAALGCLVKDYFPEPVTVSWNSGALTSGVHTFPAVLQSSGLYSLSSVVTVPSSSLGTQTYICNVNHKPSNTKVDKKVEPKSCDKTHTCPPCPAPELLGGPSVFLFPPKPKDTLMISRTPEVTCVVVDVSHEDPEVKFNWYVDGVEVHNAKTKPREEQYNSTYRVVSVLTVLHQDWLNGKEYKCKVSNKALPAPIEKTISKAKGQPREPQVCTLPPSRDELTENQVSLTCLVKGFYPSDIAVEWESNGQPENNYKTTPPVLDSDGSFFLYSWLTVDKSRWQQGNVFSCSVMHEALHNHYTQKSLSLSPG
light: DIQMTQSPSSVSASVGDRVTITCRASQGISSWLAWYQQKPGKAPKLLIYAASSLQSGVPSRFSGSGSGTDFTLTISSLQPEDFATYYCQQGVSFPRTFGGGTKVEIKRTVAAPSVFIFPPSDEQLKSGTASVVCLLNNFYPREAKVQWKVDNALQSGNSQESVTEQDSKDSTYSLSSTLTLSKADYEKHKVYACEVTHQGLSSPVTKSFNRGEC
- Kd [1]: 6.4 nM
- kon [1]: 260000 M⁻¹ s⁻¹
- Kd [2]: 2 nM
- kon [2]: 190000 M⁻¹ s⁻¹
- binding result [3]: no binding
- binding result [4]: no binding
- Kd [5]: 490 nM
- koff [5]: 0.13 s⁻¹
- kon [5]: 280000 M⁻¹ s⁻¹
- Kd [6]: 500 nM
- koff [6]: 0.14 s⁻¹
- kon [6]: 270000 M⁻¹ s⁻¹
